Legend:
[1] = system: AAV2 capsids; test: ELISA cross-reactivity, AAV2 (FIG. 3A); type: binding
Excerpt: (§1) The control sequence (i.e. the human polycystic kidney domain 2, which is known to bind to AAV9 capsids) is labeled “C” in each graph.
(§2) Seven of the variants of Table C were screened for cross-reactivity to AAV2, AAV5, and AAV8.

[2] = system: AAV full capsids vs AAV empty capsids; conditions: cited from earlier work
[3] = system: AAV8 capsids; test: ELISA cross-reactivity, AAV8 (FIG. 3C); type: binding
Excerpt: as §1, §2

[4] = system: AAV9 full capsids; test: pH dependence of binding by ELISA (acidic vs neutral elution); conditions: purified polypeptide 1 μM; citric acid pH 3, 4 or 5 vs TBS pH 7.2; FIG. 4
Procedure: The pH dependence of binding of the polypeptides of Table C was evaluated by ELISA. Initially, the bacterial lysates of cultures expressing the polypeptides of Table C were incubated in a citric acid solution (pH 4.0) containing AAV9 capsids for 30 minutes. Subsequently, the solution was washed in Tris-Buffered Saline (TBS), which contained 0.05% TWEEN® 20, at neutral pH.
The five polypeptides were expressed and purified via a C-terminal 6X-His tag. The purified polypeptides (1 μM) were incubated with an ELISA plate that was coated with AAV9 full capsids. The polypeptides were eluted from the ELISA plate with a citric acid solution at pH 3, 4, or 5 (acidic elution) or in the TBS solution described above at pH 7.2 (neutral elution). The ELISA signal from the protein that was still bound to the AAV9 capsid was measured. The post elution % ligand remaining bound to AAV9 was calculated by dividing the signal after pH 3, 4, or 5 incubation by the signal after pH 7.2 incubation, and multiplying by 100.

[5] = system: AAV5 capsids; test: ELISA cross-reactivity, AAV5 (FIG. 3B); type: binding
Excerpt: as §1, §2

[6] = system: AAV9 capsids; conditions: cited from earlier work

B1: PKD2 control protein: N-terminal His-tagged polycystic kidney domain 2 (PKD2 domain) from the AAV receptor, known to bind AAV9 capsids (protein)
chain: IAIVSPQFQEISLPTTSTVIDGSQSTDDDKIVQYHWEELKGPLREEKISEDTAILKLSKLVPGNYTFSLTVVDSDGATNSTTANLTVNKA
modifications: left off: small tags and cut ends
- binding / cross-reactivity to AAV2 [1]: cross reacted strongly
- discrimination between full and empty capsids (known) [2]: no discrimination between full and empty capsids
- binding / cross-reactivity to AAV8 [3]: bound poorly or very weakly
- AAV9 binding signal after acidic elution compared to neutral elution [4]: reduced AAV9 binding signal
- binding / cross-reactivity to AAV5 [5]: bound poorly or very weakly
- affinity to AAV9 capsids (known) [6]: known affinity to AAV9 capsids

From patent publication US20230391832A1, “CO[…]-BINDING POLYPEPTIDES AND METHODS OF USING THE SAME” (Isolere Bio, Inc., priority 2022, published 2023)
